In article PMC7277991, “Chemoenzymatic Synthesis and Biological Evaluation for Bioactive Molecules Derived from Bacterial Benzoyl Coenzyme A Ligase and Plant Type III Polyketide Synthase” (Biomolecules, 2020):

Key:
[1] = molecular target: T1, benzoate CoA ligase (BadA) (Rhodopseudomonas palustris, UniProt Q6NC13, H333A/I334A, form not given); test: X-ray crystal structure; type: binding; settings: acyl-adenylate intermediate in active site; thiolation conformation, no CoA
T1 construct: recombinant in E. coli BL21 (DE3), Ni-NTA purified

[2] = molecular target: T2, Malonyl-CoA synthetase from Rhizobium triofli (RtMCS) (Rhizobium leguminosarum, UniProt Q9ZIP5); test: HPLC and LC-ESI-MS of malonyl-CoA; type: biochemical; settings: 5 mM ATP, 2 mM CoA, 5 mM Mg2+, pH 7.5, room temperature; ATP regeneration
T2 construct: gene matB; recombinant in E. coli, Ni-NTA purified
T2 sequence (Q9ZIP5 1-504): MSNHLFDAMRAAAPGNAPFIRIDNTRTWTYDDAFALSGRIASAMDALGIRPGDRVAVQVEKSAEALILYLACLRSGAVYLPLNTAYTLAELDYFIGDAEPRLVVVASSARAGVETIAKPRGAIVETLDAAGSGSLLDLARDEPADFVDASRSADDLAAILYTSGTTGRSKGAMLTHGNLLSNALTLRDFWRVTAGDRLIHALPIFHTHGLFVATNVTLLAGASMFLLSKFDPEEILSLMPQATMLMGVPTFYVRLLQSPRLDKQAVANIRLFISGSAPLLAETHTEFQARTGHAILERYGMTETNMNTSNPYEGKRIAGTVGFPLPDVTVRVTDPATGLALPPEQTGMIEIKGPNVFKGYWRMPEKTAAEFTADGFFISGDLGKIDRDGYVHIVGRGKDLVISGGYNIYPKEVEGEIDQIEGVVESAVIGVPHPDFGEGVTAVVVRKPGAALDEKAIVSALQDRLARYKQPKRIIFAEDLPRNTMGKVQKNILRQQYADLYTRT

[3] = substrate: CC(C)(COP(=O)(O)OP(=O)(O)OC[C@H]1O[C@@H](n2cnc3c(N)ncnc32)[C@H](O)[C@@H]1OP(=O)(O)O)[C@@H](O)C(=O)NCCC(=O)NCCSC(=O)Cc1ccc(-c2ccccc2)cc1; test: HPLC product formation, Michaelis-Menten fit; type: biochemical, Pinus sylvestris; settings: 60 μM malonyl-CoA, 100 mM potassium phosphate pH 7.4, 1 mM EDTA, 30 °C
Source text: (§1) HPLC product formation, Michaelis-Menten fit on stilbene synthase (STS) from Pinus sylvestris

[4] = substrate: CC(C)(COP(=O)(O)OP(=O)(O)OC[C@H]1O[C@@H](n2cnc3c(N)ncnc32)[C@H](O)[C@@H]1OP(=O)(O)O)[C@@H](O)C(=O)NCCC(=O)NCCSC(=O)c1cnc(Cl)s1; test: HPLC product formation, Michaelis-Menten fit; type: biochemical, Pinus sylvestris; settings: 60 μM malonyl-CoA, 100 mM potassium phosphate pH 7.4, 1 mM EDTA, 30 °C
Source text: as §1

[5] = substrate: CC(C)(COP(=O)(O)OP(=O)(O)OC[C@H]1O[C@@H](n2cnc3c(N)ncnc32)[C@H](O)[C@@H]1OP(=O)(O)O)[C@@H](O)C(=O)NCCC(=O)NCCSC(=O)CCCCc1ccc(F)cc1; test: HPLC product formation, Michaelis-Menten fit; type: biochemical, Pinus sylvestris; settings: 60 μM malonyl-CoA, 100 mM potassium phosphate pH 7.4, 1 mM EDTA, 30 °C
Source text: as §1

[6] = substrate: CC(C)(COP(=O)(O)OP(=O)(O)OC[C@H]1O[C@@H](n2cnc3c(N)ncnc32)[C@H](O)[C@@H]1OP(=O)(O)O)[C@@H](O)C(=O)NCCC(=O)NCCSC(=O)CCCCCCc1ccccc1; test: HPLC product formation, Michaelis-Menten fit; type: biochemical, Pinus sylvestris; settings: 60 μM malonyl-CoA, 100 mM potassium phosphate pH 7.4, 1 mM EDTA, 30 °C
Source text: as §1

[7] = substrate: Cc1ncsc1C(=O)SCCNC(=O)CCNC(=O)[C@H](O)C(C)(C)COP(=O)(O)OP(=O)(O)OC[C@H]1O[C@@H](n2cnc3c(N)ncnc32)[C@H](O)[C@@H]1OP(=O)(O)O; test: HPLC product formation, Michaelis-Menten fit; type: biochemical, Pinus sylvestris; settings: 60 μM malonyl-CoA, 100 mM potassium phosphate pH 7.4, 1 mM EDTA, 30 °C
Source text: as §1

[8] = substrate: Cc1ncc(C(=O)SCCNC(=O)CCNC(=O)[C@H](O)C(C)(C)COP(=O)(O)OP(=O)(O)OC[C@H]2O[C@@H](n3cnc4c(N)ncnc43)[C@H](O)[C@@H]2OP(=O)(O)O)s1; test: HPLC product formation, Michaelis-Menten fit; type: biochemical, Pinus sylvestris; settings: 60 μM malonyl-CoA, 100 mM potassium phosphate pH 7.4, 1 mM EDTA, 30 °C
Source text: as §1

[9] = substrate: CC(C)(COP(=O)(O)OP(=O)(O)OC[C@H]1O[C@@H](n2cnc3c(N)ncnc32)[C@H](O)[C@@H]1OP(=O)(O)O)[C@@H](O)C(=O)NCCC(=O)NCCSC(=O)CCCCCc1ccccc1; test: HPLC product formation, Michaelis-Menten fit; type: biochemical, Pinus sylvestris; settings: 60 μM malonyl-CoA, 100 mM potassium phosphate pH 7.4, 1 mM EDTA, 30 °C
Source text: as §1

T1 sequence (Q6NC13 entry or part of it H333A/I334A, form open): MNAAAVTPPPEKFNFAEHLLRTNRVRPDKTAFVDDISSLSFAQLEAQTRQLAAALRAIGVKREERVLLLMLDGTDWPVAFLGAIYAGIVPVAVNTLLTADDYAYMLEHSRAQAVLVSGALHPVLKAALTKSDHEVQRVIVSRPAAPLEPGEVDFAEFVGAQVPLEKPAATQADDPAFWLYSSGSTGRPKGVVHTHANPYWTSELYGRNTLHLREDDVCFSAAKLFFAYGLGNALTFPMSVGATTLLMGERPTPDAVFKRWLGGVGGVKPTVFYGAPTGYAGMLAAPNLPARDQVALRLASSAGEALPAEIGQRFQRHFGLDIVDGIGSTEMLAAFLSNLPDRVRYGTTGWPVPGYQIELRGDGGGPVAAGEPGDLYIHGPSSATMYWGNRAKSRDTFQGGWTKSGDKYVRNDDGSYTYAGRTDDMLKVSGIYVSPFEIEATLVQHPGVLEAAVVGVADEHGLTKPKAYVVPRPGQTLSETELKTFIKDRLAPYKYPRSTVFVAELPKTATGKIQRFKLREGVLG

Cc1ncc(C(=O)OP(=O)(O)OC[C@H]2O[C@@H](n3cnc4c(N)ncnc43)[C@H](O)[C@@H]2O)s1 [2-methylthiazole-5-carboxyl-AMP]
X-ray crystal structure [1]: 2-methylthiazole-5-carboxyl-AMP (2M5C-AMP) (PDB entry 6M2T) intermediate were obtained

Nc1ncnc2c1ncn2[C@@H]1O[C@H](COP(=O)(O)OC(=O)c2cnc(Cl)s2)[C@@H](O)[C@H]1O [2-chloro-1,3-thiazole-5-carboxyl-AMP]
X-ray crystal structure [1]: in complex with a 2-chloro-1,3-thiazole-5-carboxyl-AMP (2Cl5C-AMP) (PDB entry 6M2U)

O=C(O)CC(=O)O [malonic acid]
HPLC and LC-ESI-MS of malonyl-CoA [2]: Malonyl-CoA was chemo-enzymatically prepared from malonate, CoA, and ATP using RtMCS

B1: stilbene synthase (STS) from Pinus sylvestris (Pinus sylvestris) (protein)
chain: MGGVDFEGFRKLQRADGFASILAIGTANPPNAVDQSTYPDFYFRITGNEHNTELKDKFKRICERSAIKQRYMYLTEEILKKNPDVCAFVEVPSLDARQAMLAMEVPRLAKEAAEKAIQEWGQSKSGITHLIFCSTTTPDLPGADFEVAKLLGLHPSVKRVGVFQHGCFAGGTVLRMAKDLAENNRGARVLVICSETTAVTFRGPSETHLDSLVGQALFGDGASALIVGADPIPQVEKACFEIVWTAQTVVPNSEGAIGGKVREVGLTFQLKGAVPDLISANIENCMVEAFSQFKISDWNKLFWVVHPGGRAILDRVEAKLNLDPTKLIPTRHVMSEYGNMSSACVHFILDQTRKASLQNGCSTTGEGLEMGVLFGFGPGLTIETVVLKSVPIQ
notes: recombinant in E. coli BL21 (DE3), Ni-NTA purified, size-exclusion
Km [3]: 23.24 µM | kcat [3]: 0.0035 s⁻¹ | Km [4]: 12.77 µM | kcat [4]: 0.00317 s⁻¹ | Km [5]: 4.15 µM | Km [6]: 29.42 µM | kcat [6]: 0.0045 s⁻¹ | Km [7]: 3.82 µM | kcat [7]: 0.00267 s⁻¹ | Km [8]: 3.87 µM | kcat [8]: 0.000167 s⁻¹ | Km [9]: 43.89 µM
